Data reported in US20260098064A1 (PENN STATE RESEARCH FOUNDATION, published 2026).

Tests used:
[1] = target: the molecule itself; assay: ITC, dimer dissociation model, buffer with 5% glycerol; Dy-bound wt Hans-LanM
Method: (§1) Isothermal titration calorimetry. The dissociation constants for the dimers of apo, La^III-bound, and Dy^III-bound Hans-LanM were determined by dilutive additions of a concentrated protein stock, followed using ITC on a TA Instruments Low-volume Auto Affinity ITC. The syringe contained 300 μM protein (apo or 2 equiv. Dy^III bound) or 150 μM or 540 μM (2 equiv. La^III bound), and the cell contained 185 μL of a matched buffer (30 mM MOPS, 100 mM KCl, pH 7.0). Titrations were carried out at 30° C. Titrations consisted of a first 0.2 μL injection followed by 17×2 μL injections, unless otherwise noted, with stirring at 125 rpm and 180 s equilibration time between injections. The heats were fitted using NanoAnalyze using the “Dimer Dissociation” model, yielding the dimer dissociation constant (Kdimer), enthalpy of dissociation (ΔH), and entropy of dissociation (ΔS).
(§2) Table 21. Thermodynamics parameters for WT and R100K Hans-LanM, obtained by fitting ITC thermograms to the dimer dissociation model. These experiments were carried out similarly to those shown in Table 18, except that 5% glycerol was present in the buffer.

[2] = analytical SEC (Superdex S75); Hans-LanM with 3.0 equiv. Ho^III
[3] = analytical SEC (Superdex S75); Hans-LanM with 3.0 equiv. Eu^III
[4] = target: the molecule itself; assay: La^III-bound Hans-LanM; no monomerization seen by ITC; upper limit estimated from SEC-MALS peak concentration (FIG. 12)
Method: (§3) To provide further support for preferential dimerization in the presence of physiologically relevant LREs, RE complexes of Hans-LanM were analyzed using multi-angle light scattering (MALS) (FIG. 2a, FIG. 9). The La^III, Nd^III, and Gd^III complexes have MWs of 22-25 kDa, indicative of dimers, but MWs decrease starting with Tb^III and continue to Dy^III and Ho^III, at ˜15 kDa (Table 17), in agreement with the SEC data. Ca^II-bound Hans-LanM also indicated a MW of 14.7 kDa. […] The Kd for dimerization (Kdimer) of apo-, La^III-bound, and Dy^III-bound Hans-LanM was determined by isothermal titration calorimetry (ITC) (FIG. 10-12, Table 18). […] Thus, La^III favors Hans-LanM's dimerization by >100-fold over Dy^III.
(§4) Isothermal titration calorimetry. The dissociation constants for the dimers of apo, La^III-bound, and Dy^III-bound Hans-LanM were determined by dilutive additions of a concentrated protein stock, followed using ITC on a TA Instruments Low-volume Auto Affinity ITC. The syringe contained 300 μM protein (apo or 2 equiv. Dy^III bound) or 150 μM or 540 μM (2 equiv. La^III bound), and the cell contained 185 μL of a matched buffer (30 mM MOPS, 100 mM KCl, pH 7.0). Titrations were carried out at 30° C. Titrations consisted of a first 0.2 μL injection followed by 17×2 μL injections, unless otherwise noted, with stirring at 125 rpm and 180 s equilibration time between injections. […]

[5] = target: the molecule itself; assay: ITC dilution of 300 µM protein, dimer dissociation model (Kdimer); apo Hans-LanM; 30 mM MOPS, 100 mM KCl, pH 7.0, 30 C
Method: as §1

[6] = analytical SEC (Superdex S75); Hans-LanM with 3.0 equiv. Dy^III
[7] = target: the molecule itself; assay: ITC, dimer dissociation model; apo Hans-LanM
Method: as §1

[8] = target: the molecule itself; assay: ITC, dimer dissociation model, 5% glycerol; Dy-bound wt Hans-LanM; unit not printed (Table 18: cal/mol/K)
Method: as §1, §2

[9] = target: the molecule itself; assay: ITC, dimer dissociation model, 5% glycerol; apo wt Hans-LanM; unit not printed (Table 18: kcal/mol)
Method: as §1, §2

[10] = target: the molecule itself; assay: ITC, dimer dissociation model; Dy^III-bound Hans-LanM
Method: as §1

[11] = target: the molecule itself; assay: ITC, dimer dissociation model, buffer with 5% glycerol; apo wt Hans-LanM
Method: as §1, §2

[12] = analytical SEC (Superdex S75); Hans-LanM (590 µM) with 3.0 equiv. La^III
[13] = target: the molecule itself; assay: ITC dilution of 300 µM protein, dimer dissociation model (Kdimer); Hans-LanM with 2 equiv. Dy^III; 30 mM MOPS, 100 mM KCl, pH 7.0, 30 C
Method: as §1

[14] = target: the molecule itself; assay: ITC, dimer dissociation model, 5% glycerol; apo wt Hans-LanM; unit not printed (Table 18: cal/mol/K)
Method: as §1, §2

[15] = analytical SEC (Superdex S75); Hans-LanM with 3.0 equiv. Gd^III
[16] = analytical SEC (Superdex S75); Hans-LanM with 3.0 equiv. Nd^III
[17] = analytical SEC (Superdex S75); Hans-LanM with 3.0 equiv. Sm^III
[18] = target: the molecule itself; assay: ITC, dimer dissociation model, 5% glycerol; Dy-bound wt Hans-LanM; unit not printed (Table 18: kcal/mol)
Method: as §1, §2

[19] = target: the molecule itself; assay: ITC and SEC-MALS estimate; La^III-bound against Dy^III-bound Hans-LanM
Method: as §3, §4

[20] = analytical SEC (Superdex S75); Hans-LanM with 3.0 equiv. Tb^III
[21] = size exclusion chromatography; 20 µM LanM_012 with 4.0 equiv. Dy^III; conditions: 20 µM protein, 5% glycerol, pH 7.0
[22] = size exclusion chromatography; 20 µM LanM_012 with 4.0 equiv. La^III; conditions: 20 µM protein, 5% glycerol, pH 7.0
[23] = target: the molecule itself; assay: ITC, dimer dissociation model, buffer with 5% glycerol; apo R100K-Hans-LanM; ITC dimer dissociation model, 5% glycerol; apo R100K
Method: as §1, §2

[24] = target: the molecule itself; assay: ITC, dimer dissociation model, 5% glycerol; La-bound R100K-Hans-LanM; unit not printed (Table 18: kcal/mol); ITC dimer dissociation model, 5% glycerol; La-bound R100K
Method: as §1, §2

[25] = target: the molecule itself; assay: ITC, dimer dissociation model, 5% glycerol; apo R100K-Hans-LanM; unit not printed (Table 18: cal/mol/K)
Method: as §1, §2

[26] = target: the molecule itself; assay: ITC, dimer dissociation model, 5% glycerol; Dy-bound R100K-Hans-LanM; unit not printed (Table 18: kcal/mol)
Method: as §1, §2

[27] = target: the molecule itself; assay: ITC, dimer dissociation model, 5% glycerol; Dy-bound R100K-Hans-LanM; unit not printed (Table 18: kcal/mol); ITC dimer dissociation model, 5% glycerol; Dy-bound R100K
Method: as §1, §2

[28] = target: the molecule itself; assay: ITC, dimer dissociation model, 5% glycerol; apo R100K-Hans-LanM; unit not printed (Table 18: kcal/mol); ITC dimer dissociation model, 5% glycerol; apo R100K
Method: as §1, §2

[29] = target: the molecule itself; assay: ITC, dimer dissociation model, 5% glycerol; La-bound R100K-Hans-LanM; unit not printed (Table 18: kcal/mol)
Method: as §1, §2

[30] = target: the molecule itself; assay: ITC, dimer dissociation model, buffer with 5% glycerol; La-bound R100K-Hans-LanM; ITC dimer dissociation model, 5% glycerol; La-bound R100K
Method: as §1, §2

[31] = target: the molecule itself; assay: ITC, dimer dissociation model, 5% glycerol; Dy-bound R100K-Hans-LanM; unit not printed (Table 18: cal/mol/K)
Method: as §1, §2

[32] = target: the molecule itself; assay: ITC, dimer dissociation model, 5% glycerol; apo R100K-Hans-LanM; unit not printed (Table 18: kcal/mol)
Method: as §1, §2

[33] = target: the molecule itself; assay: ITC, dimer dissociation model, buffer with 5% glycerol; Dy-bound R100K-Hans-LanM; ITC dimer dissociation model, 5% glycerol; Dy-bound R100K
Method: as §1, §2

[34] = target: the molecule itself; assay: ITC, dimer dissociation model, 5% glycerol; La-bound R100K-Hans-LanM; unit not printed (Table 18: cal/mol/K)
Method: as §1, §2

[35] = target: the molecule itself; assay: SEC-MALS of apo, Ca^II, La^III, Nd^III and Dy^III Mex-LanM (Table 17); self-association
Method: In-line size-exclusion chromatography and multi-angle light scattering (SEC-MALS). SEC-MALS experiments were conducted using an Agilent 1260 Infinity II HPLC system equipped with an autosampler and fraction collector, and the Wyatt SEC hydrophilic column had 5 μm silica beads, a pore size of 100 Å, and dimensions of 7.8×300 mm. Wyatt Technology DAWN MALS and Wyatt Optilab Refractive Index (RI) detectors were used for analyzing the molar mass of peaks that eluted from the column. The SEC-MALS system was equilibrated for 5 h with Buffer B. The system was calibrated with bovine serum albumin (BSA, monomer MW: 66 kDa) in the same buffer and normalization and alignment of the MALS and RI detectors were carried out. A volume of 15 μL of each sample was injected at a flow rate of 0.8 mL/min with a chromatogram run time of 25 min. Data were analyzed using the ASTRA software (Wyatt). When SAXS analysis was desired, a second run was performed with 150 μL protein (˜4 mg/mL) injected, and 200 μL fractions of the main peak were collected. BioSAXS data were subsequently collected in triplicate.
Table 17. Characterization of Hans- and Mex-LanM metal complexes using SEC-MALS. The concentrations of the protein samples loaded to the column were: 1.2-1.5 mg/mL for apo- and RE-bound Hans-LanM, 3 mg/mL for Ca^II-bound Hans-LanM, and 3 mg/mL for Mex-LanM. […]

[36] = target: the molecule itself; assay: S75 gel filtration during purification, no Ca(II) included; self-association
Method: The procedures used for expression in E. coli and purification of LanM_013 were identical to those used for Mex-LanM, except that no Ca(II) was included in the gel filtration step. […] The elution volume of the protein from the S75 column was consistent with a monomer. The purification yielded 80 mg LanM_013 from 2 L culture (40 mg/L).

B1: Hans-LanM (lanmodulin from Hansschlegelia quercus, wild type, lacking signal peptide, as expressed in this study) (other)
chain: ASGADALKALNKDNDDSLEIAEVIHAGATTFTAINPDGDTTLESGETKGRLTEKDWARANKDGDQTLEMDEWLKILRTRFKRADANKDGKLTAAELDSKAGQGVLVMIMK
notes: also called LanM_002; wt
- Kd [1]: 40 µM
- Apparent MW (SEC, kDa) [2]: 17.9 kDa
- Apparent MW (SEC, kDa) [3]: 25.5 kDa
- Kd [4]: < 0.4 µM
- Kd [5]: 117 µM
- Apparent MW (SEC, kDa) [6]: 20 kDa
- ΔG of dimer dissociation [7]: 5.5 kcal/mol
- ΔH of dimer dissociation [7]: 25.4 kcal/mol
- ΔS of dimer dissociation [7]: 66 cal/mol/K
- ΔS of dimer dissociation [8]: -36 cal/mol/K
- ΔG of dimer dissociation [9]: 6.3 kcal/mol
- ΔH of dimer dissociation [9]: 24 kcal/mol
- ΔG of dimer dissociation [10]: 5.9 kcal/mol
- ΔH of dimer dissociation [10]: -5.3 kcal/mol
- ΔS of dimer dissociation [10]: -37 cal/mol/K
- Kd [11]: 100 µM
- Apparent MW (SEC, kDa) [12]: 27.8 kDa
- Kd [13]: 60 µM
- ΔS of dimer dissociation [14]: 61 cal/mol/K
- Apparent MW (SEC, kDa) [15]: 23 kDa
- Apparent MW (SEC, kDa) [16]: 27.8 kDa
- Apparent MW (SEC, kDa) [17]: 26.1 kDa
- ΔG of dimer dissociation [18]: 6.1 kcal/mol
- ΔH of dimer dissociation [18]: -5 kcal/mol
- fold enhancement of dimerization, La^III versus Dy^III [19]: 100 fold
- Apparent MW (SEC, kDa) [20]: 21.3 kDa

B2: LanM_012 (Xanthobacter flavus LanM, with signal peptide removed) (protein)
chain: MLTGKEFLRKYNKDKDSTVEIVEAIDLGTKVFKAINPDKDKTLEAAETKGRLSDEDWAQFNKDGDKTLELDEWLIIVRKRFNDADANKDGKLTEAELDAPAGQQLILLIAK
- apparent molecular weight (SEC) [21]: an apparent molecular weight of ˜29.1 kDa
- apparent molecular weight (SEC) [22]: an apparent molecular weight of ˜29.1 kDa

B3: R100K-Hans-LanM (other)
chain: ASGADALKALNKDNDDSLEIAEVIHAGATTFTAINPDGDTTLESGETKGRLTEKDWARANKDGDQTLEMDEWLKILKTRFKRADANKDGKLTAAELDSKAGQGVLVMIMK
notes: Monomer; also called Hans-LanM(R100K); R100K variant
- Kd [23]: 82 µM
- ΔH of dimer dissociation [24]: -19 kcal/mol
- ΔS of dimer dissociation [25]: 37 cal/mol/K
- ΔG of dimer dissociation [26]: 5.9 kcal/mol
- ΔH of dimer dissociation [27]: -16 kcal/mol
- ΔH of dimer dissociation [28]: 16 kcal/mol
- ΔG of dimer dissociation [29]: 7 kcal/mol
- Kd [30]: 14 µM
- ΔS of dimer dissociation [31]: -73 cal/mol/K
- ΔG of dimer dissociation [32]: 6 kcal/mol
- Kd [33]: 54 µM
- ΔS of dimer dissociation [34]: -84 cal/mol/K

B4: Mex-LanM (lanmodulin from Methylorubrum extorquens AM1) (other)
chain: APTTTTKVDIAAFDPDKDGTIDLKEALAAGSAAFDKLDPDKDGTLDAKELKGRVSEADLKKLDPDNDGTLDKKEYLAAVEAQFKAANPDNDGTIDARELASPAGSALVNLIR
notes: also called LanM_001; M. extorquens LanM
- binding result [35]: no binding (tested: 3 mg/mL loaded)

B5: LanM_013 (Methyloligella sp. GL2 LanM, expressed construct; signal peptide removed and N-terminal Met added) (other)
chain: MGKAADAIQALDPDKDGTIDLNEAKAGAKAVFEKINPDGDGTLEVKELKGRLTKKELDAADPDNDGTLDMQEYEAVVTKQFELANPDNDGTVDEKELKTKEGKKLLKLIY
notes: Monomer
- binding result [36]: no binding
